Laboratory results published in paper PMC3618350 (G3: Genes|Genomes|Genetics, 2013).
Like-named read-outs stand apart in the source and are kept apart here.

Assays:
Rad30 [1] = target: T1, Rad30 (S. cerevisiae, UniProt Q04049 1-632); test: two-hybrid
T1 sequence (looked up): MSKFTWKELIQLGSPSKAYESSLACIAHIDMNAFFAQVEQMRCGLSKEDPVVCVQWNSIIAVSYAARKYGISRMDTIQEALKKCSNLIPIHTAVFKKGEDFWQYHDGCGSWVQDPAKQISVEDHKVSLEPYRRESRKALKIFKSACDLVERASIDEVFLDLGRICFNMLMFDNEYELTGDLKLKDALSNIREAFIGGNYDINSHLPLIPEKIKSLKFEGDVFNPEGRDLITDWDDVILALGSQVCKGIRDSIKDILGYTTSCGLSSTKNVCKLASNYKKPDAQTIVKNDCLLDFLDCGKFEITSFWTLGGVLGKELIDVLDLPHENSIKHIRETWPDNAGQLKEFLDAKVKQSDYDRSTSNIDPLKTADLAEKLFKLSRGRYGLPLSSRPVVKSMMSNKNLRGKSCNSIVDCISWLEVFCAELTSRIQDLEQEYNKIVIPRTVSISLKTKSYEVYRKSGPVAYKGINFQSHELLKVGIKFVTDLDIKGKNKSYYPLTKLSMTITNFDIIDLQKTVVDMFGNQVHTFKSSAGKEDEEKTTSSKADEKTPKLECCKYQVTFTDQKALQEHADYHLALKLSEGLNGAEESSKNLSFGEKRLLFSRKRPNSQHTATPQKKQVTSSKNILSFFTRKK

Rad30 [2] = target: T1, Rad30; test: two-hybrid; remark: listed apart in the source

fold change in reporter activity over the highest negative control (Rad30 [1]): 1.47 fold
fold change in reporter activity over the highest negative control (Rad30 [2]): 3.07 fold
B1: Rev1 (enzyme, S. cerevisiae, UniProt P12689 1-985, looked up)
chain: MGEHGGLVDLLDSDLEYSINRETPDKNNCLSQQSVNDSHLTAKTGGLNARSFLSTLSDDSLIEYVNQLSQTNKNNSNPTAGTLRFTTKNISCDELHADLGGGEDSPIARSVIEIQESDSNGDDVKKNTVYTREAYFHEKAHGQTLQDQILKDQYKDQISSQSSKIFKNCVIYINGYTKPGRLQLHEMIVLHGGKFLHYLSSKKTVTHIVASNLPLKKRIEFANYKVVSPDWIVDSVKEARLLPWQNYSLTSKLDEQQKKLDNCKTVNSIPLPSETSLHKGSKCVGSALLPVEQQSPVNLNNLEAKRIVACDDPDFLTSYFAHSRLHHLSAWKANLKDKFLNENIHKYTKITDKDTYIIFHIDFDCFFATVAYLCRSSSFSACDFKRDPIVVCHGTKNSDIASCNYVARSYGIKNGMWVSQAEKMLPNGIKLISLPYTFEQFQLKSEAFYSTLKRLNIFNLILPISIDEAVCVRIIPDNIHNTNTLNARLCEEIRQEIFQGTNGCTVSIGCSDSLVLARLALKMAKPNGYNITFKSNLSEEFWSSFKLDDLPGVGHSTLSRLESTFDSPHSLNDLRKRYTLDALKASVGSKLGMKIHLALQGQDDEESLKILYDPKEVLQRKSLSIDINWGIRFKNITQVDLFIERGCQYLLEKLNEINKTTSQITLKLMRRCKDAPIEPPKYMGMGRCDSFSRSSRLGIPTNEFGIIATEMKSLYRTLGCPPMELRGLALQFNKLVDVGPDNNQLKLRLPFKTIVTNRAFEALPEDVKNDINNEFEKRNYKRKESGLTSNSLSSKKKGFAISRLEVNDLPSTMEEQFMNELPTQIRAEVRHDLRIQKKIQQTKLGNLQEKIKRREESLQNEKNHFMGQNSIFQPIKFQNLTRFKKICQLVKQWVAETLGDGGPHEKDVKLFVKYLIKLCDSNRVHLVLHLSNLISRELNLCAFLNQDHSGFQTWERILLNDIIPLLNRNKHTYQTVRKLDMDFEV
